First the molecules themselves.
B1: Hairpin Ribozyme (parent)
chain: GUCCUCUUUCACGUGCGCGUGAAAGAGAGAAGUGAACCAGAGAAACACACGUUGUGGUAUAUUACCUGGUA

The text below walks through data of the RNAGym collection of RNA variant scans (doi:10.7554/elife.80360).

Variants of B1 are the subject of the data set. Description: self-cleavage, relative activity (ratio to wild type); higher = more cleavage; co-transcriptional.
As to A59C G68C, the self-cleavage came out at 0.227. For the variant U58C U67G, the self-cleavage was found to be 0.241.

Consider G56U A64G, for which the self-cleavage came to 0.0832. On to U63A U70C, for which the self-cleavage worked out at 0.36.

Take U55C A59C: the self-cleavage worked out at 0.0877. On to U55C A59G, for which the self-cleavage is 0.0716.

As for U58C A71G, the self-cleavage stood at 1.31. Then U58C A71U, with 0.935; and G57U U67C, with 0.116.

Turning to G57U U67A, the self-cleavage is 0.166. Consider A61C A71G, for which the self-cleavage was found to be 0.286. For the variant G56U U58C, the self-cleavage worked out at 0.0906. A61C G68U: the self-cleavage came to 0.278.

For the variant A61C G68A, the self-cleavage came to 0.116. Then U63G G69C, with 0.138; and U55A U70A, with 0.181. Regarding U55C U63A, the self-cleavage stood at 0.18.

For U55C U63G, the self-cleavage worked out at 0.119. Take U55G G57A: the self-cleavage amounted to 0.0886.

In the case of G57U U62A, the self-cleavage was 0.0927. For the variant U63G U67A, the self-cleavage stood at 0.159. On to U60G U67G, for which the self-cleavage was 0.202. For the variant G57U U60A, the self-cleavage worked out at 0.114. For the variant G57U U60C, the self-cleavage came out at 0.246.

Turning to U55G A59U, the self-cleavage amounted to 0.156. On to G56C C65G, for which the self-cleavage was found to be 0.0604.

With G56C C65U, the self-cleavage is 0.16. Take U55G G56U: the self-cleavage came to 0.211.

In the case of U55G G56C, the self-cleavage came to 0.107. Take U55G A64G: the self-cleavage stood at 0.266. For the variant G56A G69A, the self-cleavage came to 0.148. Then G56U G69A, with 0.114; and G56U G69C, with 0.124; and G56U G69U, with 0.207. Turning to U63G A64U, the self-cleavage was 0.157. For the variant U63G A64C, the self-cleavage turned out to be 0.191. With G57A U60A, the self-cleavage amounted to 0.152. On to G56A C65U, for which the self-cleavage was determined as 0.104. Turning to U58G A64U, the self-cleavage came out at 0.218. With U62C A71U, the self-cleavage is 0.277.

For U62C A71G, the self-cleavage amounted to 0.236. Then U62G C66G, with 0.0965. In the case of U60G G68C it was 0.127. As to U55A U63G, the self-cleavage was found to be 0.142.

For the variant U55G U58C, the self-cleavage amounted to 0.651. As for U55G U60A, the self-cleavage came to 0.0917. For the variant U55G U60G, the self-cleavage was determined as 0.185. With A59U U63C, the self-cleavage came to 0.12. Regarding A59G A64U, the self-cleavage came out at 0.181. Turning to G57A, the self-cleavage was determined as 0.183. Take G57U: the self-cleavage is 0.273.

As for G57C, the self-cleavage turned out to be 0.166. In the case of U60C U70C, the self-cleavage worked out at 1.28.

Turning to U60C U70G, the self-cleavage was 1.03. As for G57A U62G, the self-cleavage turned out to be 0.273. In the case of U62C U63C, the self-cleavage came to 0.168. In the case of U62C U63A, the self-cleavage is 0.21.

As for A61U A71U, the self-cleavage was 0.171. As for A61C U70C, the self-cleavage amounted to 0.169.

In the case of U55C U62C, the self-cleavage worked out at 0.315.

Take U55C U62A: the self-cleavage came to 0.106. Then U55A U60A, with 0.245; and U55A U60G, with 0.33; and U60C A61C, with 0.264.

For A59G U63C, the self-cleavage is 0.134.

Take U60A C65G: the self-cleavage was found to be 0.254. As for U60A C65U, the self-cleavage was 0.301. Then A59C A64G, with 0.1; and A59C A64C, with 0.111. For the variant A59U G68U, the self-cleavage is 0.188.

Take A59U G68A: the self-cleavage is 0.231.

As for A59U C65A, the self-cleavage was 0.19. In the case of U60C G69U, the self-cleavage worked out at 0.0645. In the case of U63A C65G it was 0.173; in that of G57A A59G, 0.171; in that of G57A A59C, 0.142.

For the variant G57U A61G, the self-cleavage is 0.296. In the case of U63C A64C, the self-cleavage stood at 0.224. As for U55A U62C, the self-cleavage was 0.229. As for U55A U62A, the self-cleavage amounted to 0.104. Regarding U58A, the self-cleavage stood at 0.742. With U58C, the self-cleavage is 0.994. U58G: the self-cleavage is 0.788. With A61C U63A, the self-cleavage was found to be 0.177. In the case of A61G A64C, the self-cleavage came out at 0.109. With A59U C66A, the self-cleavage turned out to be 0.128. Consider A59U C66G, for which the self-cleavage stood at 0.185. As to G57C G69A, the self-cleavage was found to be 0.135.

G57C G69C: the self-cleavage is 0.142. Regarding U62A U67G, the self-cleavage was found to be 0.173.

For the variant G57C U63A, the self-cleavage was 0.165.

On to U63G A71U, for which the self-cleavage was 0.117. As for U63C G69C, the self-cleavage is 0.28. Take U63C G69U: the self-cleavage turned out to be 0.183. Take A59C U70A: the self-cleavage amounted to 0.112. For U58A A64G, the self-cleavage was 0.247. Take G56A A61C: the self-cleavage turned out to be 0.112. In the case of G56A A61G, the self-cleavage is 0.2.

As to G56C G68C, the self-cleavage was 0.236.

Consider U60A C66A, for which the self-cleavage came to 0.365. Regarding U60A C66U, the self-cleavage was 0.274. For G57C C65U, the self-cleavage came out at 0.192. In the case of U58G A59G it was 0.143; in that of U60A A64U, 0.0988; in that of U60A A64C, 0.206. U60A A64G: the self-cleavage was determined as 0.353. On to G56C G69C, for which the self-cleavage stood at 0.12.

As for G56C G69U, the self-cleavage came out at 0.313. Then U58A C66U, with 0.335; and A64C C65G, with 0.161.

For the variant G56C U70G, the self-cleavage amounted to 0.0624. As for A64C A71G, the self-cleavage is 0.266. In the case of U58C U63C it was 0.178; in that of U55G A61G, 0.0963; in that of U60A A61C, 0.133. As for U60A A61U, the self-cleavage was determined as 0.17. Then U63A A71C, with 0.287; and A64C U67G, with 0.147. U55C U60C: the self-cleavage came to 0.4. In the case of U62C C65A it was 0.212.

Consider U62C C65U, for which the self-cleavage was determined as 0.162. Turning to G57U U58G, the self-cleavage is 0.0777. In the case of G57U U58C, the self-cleavage came out at 0.278. In the case of G56U U70A it was 0.145; in that of G56U U70C, 0.271; in that of U55G C65U, 0.0906. In the case of U55G C65G it was 0.256; in that of U58G U70C, 0.84. As to U62A C66U, the self-cleavage was 0.143.

As to A61G U62G, the self-cleavage is 0.128. In the case of U58A U60A it was 0.509; in that of U58A U60G, 0.646. G56C U62G: the self-cleavage came to 0.129. On to G57C A61C, for which the self-cleavage was 0.236. Take U60G A61U: the self-cleavage came out at 0.259. Regarding A59C A61U, the self-cleavage was found to be 0.284. For A61G U67A, the self-cleavage amounted to 0.328. G56U C66U: the self-cleavage is 0.0775. Turning to G56U C66G, the self-cleavage is 0.22. As for A59C U62A, the self-cleavage came out at 0.159. Consider G57A A61G, for which the self-cleavage was found to be 0.169. Regarding G57A A61C, the self-cleavage worked out at 0.155. Consider G57A A61U, for which the self-cleavage was 0.143. With U58G U63C, the self-cleavage stood at 0.271. In the case of U58C C65U, the self-cleavage was 0.55.

U63A A64G: the self-cleavage was 0.0955.

For G56C A61C, the self-cleavage turned out to be 0.109.

For the variant G56U U67A, the self-cleavage was 0.23. Take G56U U67C: the self-cleavage amounted to 0.111.

On to G56U U67G, for which the self-cleavage is 0.12. In the case of U62A G68U, the self-cleavage was 0.28.

As to U58A A59G, the self-cleavage was determined as 0.122. As to G57A U63A, the self-cleavage came to 0.131.

As for G57U A59G, the self-cleavage was 0.231. As for G57U A59C, the self-cleavage was 0.188. On to U58C A59U, for which the self-cleavage stood at 0.192. Take A61U U63A: the self-cleavage amounted to 0.123. In the case of A59U U67G it was 0.143; in that of U55A G69C, 0.217.

On to U60A A71G, for which the self-cleavage was 0.839.

With A64C U70G, the self-cleavage stood at 0.127. As to U58G C66U, the self-cleavage was 0.403.

U58G C66A: the self-cleavage was determined as 0.281. U55C U58A: the self-cleavage was 0.257. Then G56A U63C, with 0.286; and G56A U63G, with 0.0781; and U55C G68A, with 0.166.
